Measured values taken from US20070149456A1, “Epithelial sodium channel inhibiting agents and uses therefor” (University of Pittsburgh, priority 2005, published 2007).
“Also recorded” adds a separate entry of the source.

Experiments:
[1] = biological target: T1, endogenous ENaC in mpkCCDc14 cells (Mus musculus, UniProt Q61180+Q9WU38+Q9WU39); test: Amiloride-sensitive short circuit current in mpkCCDc14 monolayers, Ussing chamber; format: cell-based; conditions: mpkCCDc14, increasing concentrations of peptide
T1 construct: endogenous ENaC in a mouse cortical collecting duct (mpkCCDc14) cell line; endogenous in cells; host or cells: mpkCCDc14 mouse cortical collecting duct cell line
T1 sequence (Q61180 1-205): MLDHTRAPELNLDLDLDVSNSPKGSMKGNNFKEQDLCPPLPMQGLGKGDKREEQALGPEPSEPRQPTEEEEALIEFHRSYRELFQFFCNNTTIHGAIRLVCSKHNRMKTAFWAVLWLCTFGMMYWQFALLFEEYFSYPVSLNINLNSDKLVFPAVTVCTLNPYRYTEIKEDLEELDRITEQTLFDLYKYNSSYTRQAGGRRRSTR
T1 sequence (Q61180 232-699): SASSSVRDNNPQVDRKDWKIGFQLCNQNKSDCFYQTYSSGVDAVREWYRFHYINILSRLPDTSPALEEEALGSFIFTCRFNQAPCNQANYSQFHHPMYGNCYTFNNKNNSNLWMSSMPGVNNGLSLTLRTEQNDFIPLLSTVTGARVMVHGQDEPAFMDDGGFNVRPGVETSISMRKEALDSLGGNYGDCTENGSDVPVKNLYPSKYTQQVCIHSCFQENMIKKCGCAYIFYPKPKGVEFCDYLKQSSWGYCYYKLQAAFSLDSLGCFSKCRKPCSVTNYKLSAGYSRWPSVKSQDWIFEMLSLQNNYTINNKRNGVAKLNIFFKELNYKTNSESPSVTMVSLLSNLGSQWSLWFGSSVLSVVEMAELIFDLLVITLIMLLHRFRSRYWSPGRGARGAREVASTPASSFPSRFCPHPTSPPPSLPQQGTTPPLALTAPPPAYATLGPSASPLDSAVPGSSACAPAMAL
T1 sequence (Q9WU38 whole entry): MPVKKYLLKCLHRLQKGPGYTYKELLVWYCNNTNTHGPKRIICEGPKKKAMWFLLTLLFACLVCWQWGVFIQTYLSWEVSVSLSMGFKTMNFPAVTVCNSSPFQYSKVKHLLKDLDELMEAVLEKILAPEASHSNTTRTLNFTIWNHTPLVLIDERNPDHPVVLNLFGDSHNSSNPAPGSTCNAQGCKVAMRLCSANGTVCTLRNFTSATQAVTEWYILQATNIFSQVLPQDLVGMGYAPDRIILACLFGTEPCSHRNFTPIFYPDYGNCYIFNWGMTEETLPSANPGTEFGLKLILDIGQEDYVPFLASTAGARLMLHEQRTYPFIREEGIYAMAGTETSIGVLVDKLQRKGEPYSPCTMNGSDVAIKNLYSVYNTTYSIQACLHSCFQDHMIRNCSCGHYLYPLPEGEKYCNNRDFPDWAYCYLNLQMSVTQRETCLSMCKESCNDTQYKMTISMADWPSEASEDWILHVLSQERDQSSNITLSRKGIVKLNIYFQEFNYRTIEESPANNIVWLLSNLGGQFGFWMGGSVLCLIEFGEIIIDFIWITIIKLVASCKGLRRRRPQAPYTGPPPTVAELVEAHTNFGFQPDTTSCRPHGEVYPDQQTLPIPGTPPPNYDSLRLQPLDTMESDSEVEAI
T1 sequence (Q9WU39 1-143): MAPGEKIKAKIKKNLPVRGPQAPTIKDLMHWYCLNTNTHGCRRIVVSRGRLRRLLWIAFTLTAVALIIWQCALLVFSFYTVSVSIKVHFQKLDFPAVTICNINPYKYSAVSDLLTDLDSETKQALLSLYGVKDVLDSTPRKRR
T1 sequence (Q9WU39 187-655): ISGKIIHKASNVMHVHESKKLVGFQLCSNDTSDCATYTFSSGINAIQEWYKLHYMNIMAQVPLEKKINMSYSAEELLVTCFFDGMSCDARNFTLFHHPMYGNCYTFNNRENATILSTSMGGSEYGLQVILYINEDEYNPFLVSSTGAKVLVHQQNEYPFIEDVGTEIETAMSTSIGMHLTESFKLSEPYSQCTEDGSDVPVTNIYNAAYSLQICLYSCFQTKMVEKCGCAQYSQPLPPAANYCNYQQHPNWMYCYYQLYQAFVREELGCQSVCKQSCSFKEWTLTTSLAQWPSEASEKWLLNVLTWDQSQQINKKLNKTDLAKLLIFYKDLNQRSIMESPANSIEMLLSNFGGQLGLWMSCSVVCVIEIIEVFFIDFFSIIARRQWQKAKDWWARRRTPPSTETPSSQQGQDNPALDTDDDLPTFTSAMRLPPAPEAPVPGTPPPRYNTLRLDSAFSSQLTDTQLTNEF
Method: mpkCCDc14 Cell Culture—mpkCCDc14 cells were grown as previously reported (Bens, M., Vallet, V., Cluzeaud, F., Pascual-Letallec, L., Kahn, A., Rafestin-Oblin, M. E., Rossier, B. C., and Vandewalle, A. (1999), Corticosteroid-dependent sodium transport in a novel immortalized mouse collecting duct principal cell line, J. Am. Soc. Nephrol. 10, 923-934). mpkCCDc14 cells were subcultured onto permeable filter supports coated with collagen (0.4-μm pore size, 1-cm^2 surface area, Snapwell filters; Coming Inc., Acton, Mass.). Cells were kept on filters for at least 4 days in defined medium (Bens, M., Vallet, V., Cluzeaud, F., Pascual-Letallec, L., Kahn, A., Rafestin-Oblin, M. E., Rossier, B. C., and Vandewalle, A. (1999) J. Am. Soc. Nephrol. 10, 923-934 30) that was changed every second day. At least 24 h prior to the experiments, the culture medium was replaced with a minimal medium (without drugs or hormones) that contained only Dulbecco's modified Eagle's medium and Ham's F-12.
(§1) Short Circuit Current Measurements—Cell culture inserts were mounted in modified Ussing chambers (Harvard Apparatus, Holliston, Mass.), and the monolayers were continuously short-circuited with a voltage/current clamp system (Physiologic Instruments, San Diego, Calif.). A 2-mV bipolar pulse was applied periodically to measure the resistance of the monolayer. As previously described by Bridges et al. (Bridges, R. J., Newton, B. B., Pilewski, J. M., Devor, D. C., Poll, C. T., and Hall, R. L. (2001), Na+ transport in normal and CF human bronchial epithelial cells is inhibited by BAY 39-9437, Am. J. Physiol. 281, L16-L23 32, Na^+ transport in normal and CF human bronchial epithelial cells is inhibited by BAY 39-9437), the bath solution contained (in mM) 120 NaCl, 25 NaHCO3, 3.3 KH2PO4, 0.8 K2HPO4, 1.2 MgCl2, 1.2 CaCl2, and 10 glucose. The pH of this solution was 7.4 when gassed with a mixture of 95% O2-5% CO2 at 37° C.
(FIG. 6A) mpkCCDc14cells cultured on permeable membrane supports and mounted in a modified Ussing chamber were continuously short-circuited by a voltage clamp amplifier (Physiologic Instruments, San Diego, Calif.). Transepithelial resistance was monitored by applying a 4 mV bipolar pulse every 60 seconds. Where indicated, a 43 residue peptide corresponding to E144-K186 of mouse γ-ENaC (γ-peptide) was added to the apical chamber at a final concentration of 3 μM. […] Data presented as mean +/−standard error (n=8).
(§2) Vectors and Cell Culture—Wild-type, C-terminal and double epitope tagged mouse ENaC subunit cDNAs were previously described (Hughey, R. P., Mueller, G. M., Bruns, J. B., Kinlough, C. L., Poland, P. A., Harkleroad, K. L., Carattino, M. D., and Kleyman, T. R. (2003) J Biol Chem 278, 37073-37082 and Ahn, Y. J., Brooker, D. R., Kosari, F., Harte, B. J., Li, J., Mackler, S. A., and Kleyman, T. R. (1999), Cloning and functional expression of the mouse epithelial sodium channel, Am J Physiol 277, F121-129). The γ subunit mutations were generated in pcDNA3.1 (+) using a standard two-step PCR method. A cDNA clone (IMAGE #: 3600399) encoding full length mouse prostasin was obtained from Open Biosystems (Huntsville, Ala.) and sub-cloned into pcDNA3.1 (+) (Invitrogen, Carlsbad, Calif.). MDCK type 1 cells were a gift from Barry M. Gumbiner (Memorial Sloan-Kettering Cancer Center, New York) and were cultured as previously described (Lavelle, J. P., Negrete, H. O., Poland, P. A., Kinlough, C. L., Meyers, S. D., Hughey, R. P., and Zeidel, M. L. (1997), Low permeabilities of MDCK cell monolayers: a model barrier epithelium, Am J Physiol 273, F67-75). CCD (mpkCCDc14) cells were a gift from Alain Vandewalle (Institut National de la Santéet de la Recherche Médicale, Paris, France) and were cultured as previously described (Bens, M., Vallet, V., Cluzeaud, F., Pascual-Letallec, L., Kahn, A., Rafestin-Oblin, M. E., Rossier, B. C., and Vandewalle, A. (1999) J Am Soc Nephrol 10, 923-934).

[2] = biological target: T2, endogenous ENaC in HAE cells (Homo sapiens, UniProt P37088+P51168+P51170); test: Amiloride-sensitive short circuit current in primary human airway epithelial (HAE) cell monolayers, Ussing chamber; format: cell-based; conditions: HAE
T2 construct: endogenous in cells; host or cells: primary human airway (bronchial) epithelial cells from transplant or donor lungs
From the text: Primary Cultures of HAE Cells—HAE cells were obtained from excess pathological tissue remaining after lung transplantation or from organ donor lungs deemed not suitable for transplantation under a protocol approved by the University of Pittsburgh […] Review Board. All cells were isolated from second through sixth generation bronchi and grown on permeable Transwell supports (Coming Inc.) as previously described (Devor, D. C., and Pilewski, J. M. (1999), UTP inhibits Na^+ absorption in wild-type and DeltaF508 CFTR-expressing human bronchial epithelia, Am. J. Physiol. 276, C827-C837 31. ).
as §1
Primary cultures of HAE cells grown on permeable membrane supports and mounted in modified Ussing chambers were continuously short-circuited by a voltage clamp amplifier (Physiologic Instruments, San Diego, Calif.). Monolayers were exposed to increasing concentrations of either the γ-peptide (closed circles) or a scrambled peptide (open circles). […] (n=8-9).
as §2, with “923-934). HAE cells were isolated and cultured as described (Devor, D. C., Bridges, R. J., and Pilewski, J. M. (2000), Pharmacological modulation of ion transport across wild-type and DeltaF508 CFTR-expressing human bronchial epithelia, Am J Physiol Cell Physiol 279, C461-479). […]” for “923-934).”

[3] = biological target: T1, endogenous ENaC in mpkCCDc14 cells; test: Amiloride-sensitive short circuit current in mpkCCDc14 monolayers, Ussing chamber; format: cell-based; conditions: peptide 50 μM
[4] = biological target: endogenous ENaC in primary cultures of human airway epithelial (HAE) cells (human, UniProt P51168 1-640); test: cell-based or functional assay
Chain of endogenous ENaC in primary cultures of human airway epithelial (HAE) cells (chain, as listed by the source, chain 1 of 3): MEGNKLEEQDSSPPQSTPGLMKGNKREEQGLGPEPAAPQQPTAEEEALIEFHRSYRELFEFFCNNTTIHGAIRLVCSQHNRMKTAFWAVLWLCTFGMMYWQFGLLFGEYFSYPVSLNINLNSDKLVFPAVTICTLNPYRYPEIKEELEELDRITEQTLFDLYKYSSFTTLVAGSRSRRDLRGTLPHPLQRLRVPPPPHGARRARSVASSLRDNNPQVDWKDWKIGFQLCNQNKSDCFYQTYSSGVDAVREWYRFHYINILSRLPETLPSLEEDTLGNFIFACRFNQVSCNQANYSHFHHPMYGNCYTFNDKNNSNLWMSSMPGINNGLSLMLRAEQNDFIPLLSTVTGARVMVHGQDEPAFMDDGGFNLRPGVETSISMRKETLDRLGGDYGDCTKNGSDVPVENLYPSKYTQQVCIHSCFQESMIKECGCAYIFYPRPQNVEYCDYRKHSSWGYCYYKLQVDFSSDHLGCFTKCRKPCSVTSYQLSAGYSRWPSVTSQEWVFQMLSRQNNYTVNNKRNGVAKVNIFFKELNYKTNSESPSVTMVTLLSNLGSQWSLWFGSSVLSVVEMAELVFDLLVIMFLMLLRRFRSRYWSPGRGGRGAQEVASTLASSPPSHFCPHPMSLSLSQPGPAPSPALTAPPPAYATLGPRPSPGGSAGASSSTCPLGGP
Chain of endogenous ENaC in primary cultures of human airway epithelial (HAE) cells (P51168 whole entry, chain 2 of 3): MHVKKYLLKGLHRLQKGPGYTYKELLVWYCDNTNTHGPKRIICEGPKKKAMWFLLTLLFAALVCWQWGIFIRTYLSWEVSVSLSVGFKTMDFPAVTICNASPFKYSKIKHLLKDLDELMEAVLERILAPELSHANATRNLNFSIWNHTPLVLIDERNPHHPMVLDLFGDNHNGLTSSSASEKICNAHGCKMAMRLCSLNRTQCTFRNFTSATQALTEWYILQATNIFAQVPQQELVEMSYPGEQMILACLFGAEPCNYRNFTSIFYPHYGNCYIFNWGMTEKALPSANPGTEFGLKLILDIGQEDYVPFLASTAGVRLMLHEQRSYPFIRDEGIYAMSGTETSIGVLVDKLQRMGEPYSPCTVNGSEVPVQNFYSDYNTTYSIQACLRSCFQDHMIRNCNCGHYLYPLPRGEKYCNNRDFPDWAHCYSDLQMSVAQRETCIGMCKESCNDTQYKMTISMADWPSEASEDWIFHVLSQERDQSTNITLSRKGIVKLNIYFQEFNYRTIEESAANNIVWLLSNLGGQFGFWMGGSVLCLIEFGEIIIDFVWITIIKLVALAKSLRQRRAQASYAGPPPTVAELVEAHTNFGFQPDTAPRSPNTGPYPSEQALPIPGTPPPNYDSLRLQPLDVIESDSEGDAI
Chain of endogenous ENaC in primary cultures of human airway epithelial (HAE) cells (chain, as listed by the source, chain 3 of 3): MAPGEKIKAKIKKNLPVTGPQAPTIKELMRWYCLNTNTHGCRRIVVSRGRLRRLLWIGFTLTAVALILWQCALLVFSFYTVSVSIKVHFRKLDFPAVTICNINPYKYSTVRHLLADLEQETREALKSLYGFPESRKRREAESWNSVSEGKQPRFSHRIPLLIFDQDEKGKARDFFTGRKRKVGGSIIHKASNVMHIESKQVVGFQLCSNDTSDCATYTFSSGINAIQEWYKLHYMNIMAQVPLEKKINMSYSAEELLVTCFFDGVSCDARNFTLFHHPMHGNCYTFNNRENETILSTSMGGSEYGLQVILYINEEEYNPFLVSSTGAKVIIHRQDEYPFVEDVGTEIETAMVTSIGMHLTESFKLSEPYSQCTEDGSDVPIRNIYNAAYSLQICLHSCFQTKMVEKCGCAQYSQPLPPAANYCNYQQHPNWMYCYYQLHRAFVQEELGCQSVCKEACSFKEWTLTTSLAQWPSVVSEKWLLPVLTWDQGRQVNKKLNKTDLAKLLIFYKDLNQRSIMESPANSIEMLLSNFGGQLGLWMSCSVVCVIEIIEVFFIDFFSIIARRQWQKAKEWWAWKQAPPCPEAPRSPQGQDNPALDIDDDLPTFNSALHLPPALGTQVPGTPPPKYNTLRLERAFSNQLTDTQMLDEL

[5] = biological target: endogenous ENaC in the mouse cortical collecting duct cell line mpkCCDc14 (mouse, UniProt Q9WU38 1-638); test: cell-based or functional assay
[6] = biological target: wild-type αβγ mouse epithelial sodium channel (ENaC) expressed in Xenopus oocytes (mouse, UniProt Q9WU38 1-638); test: cell-based or functional assay

Molecule: FKGFVGKEALREILTFWLRFNNTEMDSKPLRTRANPPSKGGRE (Ac-FKGFVGKEALREILTFWLRFNNTEMDSKPLRTRANPPSKGGRE-NH2) [scrambled peptide, reference compound]
- inhibition of amiloride sensitive short circuit currents [1]: minimal effect; also recorded: failed to inhibit
- inhibition of amiloride sensitive short circuit currents ([2]; increasing concentrations of peptide): minimal effect; also recorded: failed to inhibit; also recorded: only a slight inhibition

Molecule: PLTQPRPRLADHNPLSARRRPLPAGP (Ac-PLTQPRPRLADHNPLSARRRPLPAGP-NH2) [SCR, reference compound]
- inhibition of Isc ([2]; peptide 50 μM): did not inhibit
- inhibition of Isc [3]: did not inhibit

Molecule: Ac-DLRGALPHPLQRLRTPPPPNPARSAR-NH2
- IC50, inhibition of amiloride-sensitive short circuit current (Isc) in HAE monolayers (FIG. 5A) [4]: 46000 nM
- IC50, inhibition of amiloride-sensitive short circuit current (Isc) in mpkCCDc14 monolayers (FIG. 5B) [5]: 100000 nM
- IC50, inhibition of amiloride-sensitive whole cell Na+ current in oocytes, holding potential -20 mV [6]: 2900 nM
- IC50, inhibition of amiloride-sensitive whole cell Na+ current in oocytes, holding potential -100 mV [6]: 2900 nM
- IC50, inhibition of amiloride-sensitive whole cell Na+ current, two-electrode voltage clamp in Xenopus oocytes (FIG. 3A; holding potential -60 mV, value repeated in the same paragraph) [6]: 2800 nM

Molecule: LPHPLQRL [8-residue fragment LPHPLQRL of α-26]
- IC50, inhibition of mouse ENaCs expressed in oocytes [6]: ~1000 nM

Molecule: Ac-EAGSMRSTWEGTPPRFLNLIPLLVFNENEKGKARDFFTGRKRK-NH2 [γ-43, synthetic 43-residue peptide corresponding to the tract Glu144-Lys186 of mouse γ ENaC]
- IC50, inhibition of amiloride sensitive short circuit currents in primary HAE cells (FIG. 7) [4]: 1900 nM
- IC50, inhibition of short circuit currents in primary cultures of HAE cells (FIG. 18C) [4]: 2000 nM
- IC50, inhibition of amiloride sensitive short circuit currents in mpkCCDc14 cells (FIG. 6B) [5]: 3200 nM
- IC50, inhibition of short circuit currents in mouse CCD cells (FIG. 18B) [5]: 3200 nM
